Source: patent US20240287172A1 (SCIRHOM, published 2024)

T1: hiR2-FL-S562E-T7 (human, UniProt Q6PJF5 1-856)
T1 sequence: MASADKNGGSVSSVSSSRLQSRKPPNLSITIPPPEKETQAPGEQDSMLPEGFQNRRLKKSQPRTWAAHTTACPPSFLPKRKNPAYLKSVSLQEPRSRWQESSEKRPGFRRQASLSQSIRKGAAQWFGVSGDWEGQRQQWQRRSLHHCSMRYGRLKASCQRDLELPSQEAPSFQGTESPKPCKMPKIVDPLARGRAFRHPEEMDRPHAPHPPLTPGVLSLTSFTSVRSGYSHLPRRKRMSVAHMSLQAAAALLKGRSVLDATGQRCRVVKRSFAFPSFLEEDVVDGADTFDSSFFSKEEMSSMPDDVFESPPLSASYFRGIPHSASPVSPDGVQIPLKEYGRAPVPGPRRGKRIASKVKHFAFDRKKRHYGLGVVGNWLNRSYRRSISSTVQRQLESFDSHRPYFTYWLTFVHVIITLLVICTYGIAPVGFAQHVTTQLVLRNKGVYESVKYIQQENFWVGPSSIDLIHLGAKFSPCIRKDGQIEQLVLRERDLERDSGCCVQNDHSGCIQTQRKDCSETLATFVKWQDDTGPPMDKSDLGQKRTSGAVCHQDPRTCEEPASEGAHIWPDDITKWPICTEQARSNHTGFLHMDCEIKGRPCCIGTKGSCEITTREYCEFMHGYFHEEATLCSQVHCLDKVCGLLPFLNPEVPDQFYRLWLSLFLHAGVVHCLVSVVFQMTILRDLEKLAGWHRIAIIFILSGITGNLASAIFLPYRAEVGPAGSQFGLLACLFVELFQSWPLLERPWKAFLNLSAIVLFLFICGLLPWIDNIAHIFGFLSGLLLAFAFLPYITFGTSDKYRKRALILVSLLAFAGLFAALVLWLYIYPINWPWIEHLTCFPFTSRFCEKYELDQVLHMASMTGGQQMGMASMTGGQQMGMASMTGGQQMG

T2: hiR2-FL-Q527P-T7 (human, UniProt Q6PJF5 1-856)
T2 sequence: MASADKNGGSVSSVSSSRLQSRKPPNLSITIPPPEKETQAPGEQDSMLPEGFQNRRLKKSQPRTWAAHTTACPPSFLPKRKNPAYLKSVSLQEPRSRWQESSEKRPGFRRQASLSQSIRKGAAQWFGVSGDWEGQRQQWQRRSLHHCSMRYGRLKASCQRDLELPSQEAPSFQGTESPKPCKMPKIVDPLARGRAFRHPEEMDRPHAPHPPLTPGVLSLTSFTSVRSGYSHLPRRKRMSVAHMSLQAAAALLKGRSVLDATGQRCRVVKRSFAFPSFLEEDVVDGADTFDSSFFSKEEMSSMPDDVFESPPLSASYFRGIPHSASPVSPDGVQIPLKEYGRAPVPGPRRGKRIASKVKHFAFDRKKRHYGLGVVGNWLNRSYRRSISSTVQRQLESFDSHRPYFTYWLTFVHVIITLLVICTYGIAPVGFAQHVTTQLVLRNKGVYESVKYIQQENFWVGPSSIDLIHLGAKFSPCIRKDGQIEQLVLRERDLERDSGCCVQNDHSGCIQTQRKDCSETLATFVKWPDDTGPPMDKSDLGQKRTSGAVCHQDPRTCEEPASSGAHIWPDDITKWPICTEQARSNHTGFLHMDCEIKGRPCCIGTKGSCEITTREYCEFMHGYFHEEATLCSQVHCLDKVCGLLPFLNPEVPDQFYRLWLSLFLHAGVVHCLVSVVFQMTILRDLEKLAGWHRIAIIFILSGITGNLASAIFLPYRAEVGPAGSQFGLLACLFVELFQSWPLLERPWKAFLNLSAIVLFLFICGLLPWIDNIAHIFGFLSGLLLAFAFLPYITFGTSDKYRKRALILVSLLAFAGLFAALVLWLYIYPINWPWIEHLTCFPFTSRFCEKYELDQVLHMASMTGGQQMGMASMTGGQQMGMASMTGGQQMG


Key:
hiR2-FL-S562E-T7 = biological target: T1, hiR2-FL-S562E-T7; assay: FACS, MEF-DKO cells, 3 µg/ml
hiR2-FL-Q527P-T7 = biological target: T2, hiR2-FL-Q527P-T7; assay: FACS, MEF-DKO cells, 3 µg/ml

Binder | loss of binding vs wild type (hiR2-FL-S562E-T7) [%] | loss of binding vs wild type (hiR2-FL-Q527P-T7) [%]
antibody 3 (antibody, V domains shown, mouse IgG, kappa light chain; also called clone #3; purified antibody 3) VH: QVTLKESGPGILQPSQTLSLTCSFSGFSLTTFAMGIGWVRQPSGKGLEWLAHIWWDGEKYNNPVLKSRLTISKDTSKNQVFLRIANVDTPDTATYYCARISSIYYIIDNWGQGTSVTVSS VL: DIVLTQSPATLSVTPGHSVSLSCRASQSISNNLHWYQKKSHESPRLLIKYVSQSISGIPSRFSGSGSGTDFTLSINSVETEDFGMYFCQQSYNWPLTFGAGTKLELK | ≥ 30 | ≥ 30
antibody 34 (antibody, V domains shown, mouse IgG, kappa light chain; also called clone #34; purified antibody 34) VH: QVTLKESGPGILQPSQTLSLTCSFSGFSLSTFSLGVGWIRQSSGKGLEWLAHIWWDDEKYYNPALKSRLTISKDTSKNQVFLKIANVDAADTATYYCARAYYSKSYYALDYWGQGTSVTVSS VL: DIQMTQSPSSLSASLGERVSLTCRASQEISGYLSWLQQKPDGTIKRLIYAASTLDSGVPKRFSGSRSGSDYSLAISSLESEDFADYYCLQYANFPFTFGSGTKLEIK | ≥ 60 | 
antibody 48 (antibody, V domains shown, mouse IgG, kappa light chain; also called clone #48; purified antibody 48) VH: QVQLQQSGTELVRPGTSVKVSCKASGYAFTNYLIEWVKQRPGQGLEWIGVINPGSGFTKYNEKFKGKATLTADKSSSTVYMHLSSLTSEDSAVYFCARGLYRAMDYWGQGTSVTVSS VL: DIQMTQSPASQSASLGESVTITCLASQTIATWLAWYQQKPGKSPQLLIYGATTLADGVPSRFSGGGSGTKFSFKISSLQAEDFVSYYCQQLYSTPYTFGGGTKLEIK | ≥ 30 | ≥ 30
antibody 50 (antibody, V domains shown, mouse IgG, kappa light chain; also called clone #50; purified antibody 50) VH: QVQLQQSGAELVRPGASVKVSCKASGYAFSNYLIEWVKQRPGQGLEWIGVINPGSGFTKYNEKFKGKATLTADKSSSTAYMQLSSLTSEDSAVYFCARGLYRAMDYWGQGTSVTVSS VL: DIQMTQSPASQSASLGESVTITCLASQTIGTWLAWYQQKPGKSPQLLIYAAASLADGVPSRFSGGGSGTKFSFKISSLQAEDFVNYYCQQIYSTPYTFGGGTKLEIK | ≥ 30 | ≥ 30
antibody 5 (antibody, V domains shown, mouse IgG, kappa light chain; also called clone #5; purified antibody 5) VH: QVTLKESGPGILQPSQTLSLTCSFSGFSLSTFGMGVGWIRQPSGKGLEWLAHIWWDDEKYYNSALKSRLTISKATSKNQAFLKIANVDTADTATYYCARISNYGSNYWYFNVWGTGTTVTVSS VL: QVVLTQSPALMSASPGEKVTMTCSAGSSVSCMYWYQQKPGSSPRVLIYDTSNLASGVPARFTGSGSGTSYSLTISRMEAEDAASYYCQQWNSYPLTFGAGTKLELK | ≥ 60 | ≥ 60
antibody 42 (antibody, V domains shown, mouse IgG, kappa light chain; also called clone #42; purified antibody 42) VH: QVTLKESGPGILQPSQTLSLTCSLSGFSLSTFGRGVGWIRQPSGKGLEWLAHIWWDDEKYYNPALKSRLTISKDTSKNQVFLRIANVDTADTATYYCARIQNYGSNYWYFDVWGTGTTVTVSS VL: LIVLTQSPAIMSASPGEKVTMTCGATSRISYMFWYQQKPGSSPRVLIYDTSNLASGVPVRFSGSGSGTSYSLTISRVEAEDVATYYCQQWNSYPLTFGAGTKLELK | ≥ 60 | ≥ 30
antibody 43 (antibody, V domains shown, mouse IgG, kappa light chain; also called clone #43; purified antibody 43) VH: QVALKESGPGILQPSQTLSLTCSFSGFSLSTFGMGVGWIRQSSGKGLEWLANIWWDDDKYYNPALKSRLTISKDASKNQAFLKIANVDTADTATYYCARIGNYGSNYWYFDVWGTGTTVTVSS VL: QIVLTQSPAIMSASPGERVTMTCSANSRISYMYWYQQKPGSSPRLLIYDTSNLASGVPVRFSGSGSGTSYSLTISRMEAEDAATYNCQQWSSYPLTFGAGTKLELK | ≥ 60 | ≥ 60
antibody 44 (antibody, V domains shown, mouse IgG, kappa light chain; also called clone #44; purified antibody 44) VH: QVTLKESGPGILQPSQTLSLTCSFSGFSLSTFGMGVGWIRQPSEKGLEWLAHIWWDDDKYYNPALKSRLTISKDTSKNQIFLKITNVDTAETATYYCSRIGNYGSNYWYFDVWGTGTTVTVSS VL: QIVLTQSPAVMSASPGEKVTMTCTASSSVYYMYWYQQTPGSSPRLLIYDTSNLASGVPVRFSGSGSGTSYSLTISRMEAEDAATYYCQQWNTYPLTFGAGTKLELK | ≥ 30 | ≥ 60
antibody 22 (antibody, V domains shown, mouse IgG, kappa light chain; also called clone #22; purified antibody 22) VH: QVTLKESGPGILQPSQTLSLTCSFSGFSLSTFGMGVGWIRQPSGKGLEWLAHIWWDDEKYYNSALKSRLTISKATSKNQVFLKIANVDTADTATYYCARISNYGSNYWYFNVWGTGTTVTVSS VL: QVVLTQSPALMSASPGEKVTMTCSAGSSVSYMYWYQQKPGSSPRVLIYDTSNLASGVPARFTGSGSGTSYSLTISRMEAEDAATYYCQQWNSYPLTFGAGTKLELK | ≥ 30 | 
